Data reported in PMC2748305.

Columns and labels:
steady-state kinetics [1] = substrate: O=C(O)CCC(=O)N[C@H](CCC(=O)O)C(=O)O; assay: steady-state kinetics; assay type: biochemical, Bordetella bronchiseptica; conditions: Zn2+; pH 7.5
steady-state kinetics [2] = substrate: O=CN[C@H](CCC(=O)O)C(=O)O; assay: steady-state kinetics; assay type: biochemical, Bordetella bronchiseptica; conditions: Zn2+; pH 7.5

B1: Bb3285 (N-acyl-D-glutamate deacylase) (Bordetella bronchiseptica RB50) (protein)
chain: MQNAEKLDFKITGGWIIDGTGAPRRRADLGVRDGRIAAIGELGAHPARHAWDASGKIVAPGFIDVHGHDDLMFVEKPDLRWKTSQGITTVVVGNCGVSAAPAPLPGNTAAALALLGETPLFADVPAYFAALDAQRPMINVAALVGHANLRLAAMRDPQAAPTAAEQQAMQDMLQAALEAGAVGFSTGLAYQPGAVAQAAELEGLARVAAERRRLHTSHIRNEADGVEAAVEEVLAIGRGTGCATVVSHHKCMMPQNWGRSRATLANIDRAREQGVEVALDIYPYPGSSTILIPERAETIDDIRITWSTPHPECSGEYLADIAARWGCDKTTAARRLAPAGAIYFAMDEDEVKRIFQHPCCMVGSDGLPNDARPHPRLWGSFTRVLGRYVREARLMTLEQAVARMTALPARVFGFAERGVLQPGAWADVVVFDPDTVADRATWDEPTLASVGIAGVLVNGAEVFPQPPADGRPGQVLRAGA
B1 showed a kcat/Km (steady-state kinetics [1]) of 96000 ± 35000 M⁻¹ s⁻¹, a Km (steady-state kinetics [2]) of 380 ± 35 µM and a kcat (steady-state kinetics [2]) of 2200 ± 72 s⁻¹.
